Results on six molecules are retold here after PMC7424515, “Molecular characterization of pyridoxine 5′-phosphate oxidase and its pathogenic forms associated with neonatal epileptic encephalopathy” (Scientific Reports, 2020).

Changes are numbered by the printed parent chain. Names and notes keep the numbering of the source.

Data set [1] addresses human PNPO X262Q variant (human). The data set is described as follows: SEC; Superdex 200 10/300 GL; 20 mM potassium-phosphate buffer, pH 7.6, 150 mM NaCl, 5 mM 2-mercaptoethanol; oligomeric state from elution profile. (Size exclusion chromatography separates by hydrodynamic size, large species first.)
Data set [2] concerns the molecule itself. Described as above.

In the case of human PNPO X262Q variant (enzyme), the stoichiometry N (in general, the number of molecules, sites or subunits per partner or assembly) in data set [1] is 2.

B1: human pyridoxine 5′-phosphate oxidase (PNPO), wild type (enzyme)
chain: MTCWLRGVTATFGRPAEWPGYLSHLCGRSAAMDLGPMRKSYRGDREAFEETHLTSLDPVKQFAAWFEEAVQCPDIGEANAMCLATCTRDGKPSARMLLLKGFGKDGFRFFTNFESRKGKELDSNPFASLVFYWEPLNRQVRVEGPVKKLPEEEAECYFHSRPKSSQIGAVVSHQSSVIPDREYLRKKNEELEQLYQDQEVPKPKSWGGYVLYPQVMEFWQGQTNRLHDRIVFRRGLPTGDSPLGPMTHRGEEDWLYERLAP
notes: also called wild type PNPO; pyridoxal 5′-phosphate synthase; source: E. coli, pET28-PNPO, purified (HisTrap metal-chelation chromatography)
Regarding B1, the “stoichiometry N” value in data set [2] is 2.

B2: human PNPO R141C variant (enzyme)
chain: B1 chain with R141C
notes: Pathogenic variant found in a PNPOD patient; source: E. coli Rosetta(λDE3), purified (HisTrap metal-chelation chromatography)
For B2, the “stoichiometry N” value in data set [2] worked out at 2.

B3: human PNPO G118R variant (enzyme)
chain: B1 chain with G118R
notes: Pathogenic variant found in PNPOD patients; source: E. coli Rosetta(λDE3), purified (HisTrap metal-chelation chromatography)
B3: the “stoichiometry N” value in data set [2] is 2.

B4: human PNPO R225H variant (enzyme)
chain: B1 chain with R225H
notes: as for B3
For B4, the “stoichiometry N” value in data set [2] came out at 2.

B5: human PNPO R116Q/R225H double variant (enzyme)
chain: B1 chain with R116Q, R225H
notes: Combination of replacements found together in PNPOD patients; source: E. coli Rosetta(λDE3), purified (HisTrap metal-chelation chromatography)
Take B5: the “stoichiometry N” value in data set [2] was determined as 2.
